Data on one molecule can be found in patent US20200181251A1 (SCHOLAR ROCK, published 2020).

The target in the assay is T1, LRRC33 (Leucine-rich repeat-containing protein 33) (human, UniProt Q86YC3 19-692).
T1 construct: Endogenous LRRC33 on the surface of PMA-stimulated THP1 cells; On cells it may be complexed with proTGFb1; also called NRROS; Negative Regulator of Reactive Oxygen Species
T1 sequence: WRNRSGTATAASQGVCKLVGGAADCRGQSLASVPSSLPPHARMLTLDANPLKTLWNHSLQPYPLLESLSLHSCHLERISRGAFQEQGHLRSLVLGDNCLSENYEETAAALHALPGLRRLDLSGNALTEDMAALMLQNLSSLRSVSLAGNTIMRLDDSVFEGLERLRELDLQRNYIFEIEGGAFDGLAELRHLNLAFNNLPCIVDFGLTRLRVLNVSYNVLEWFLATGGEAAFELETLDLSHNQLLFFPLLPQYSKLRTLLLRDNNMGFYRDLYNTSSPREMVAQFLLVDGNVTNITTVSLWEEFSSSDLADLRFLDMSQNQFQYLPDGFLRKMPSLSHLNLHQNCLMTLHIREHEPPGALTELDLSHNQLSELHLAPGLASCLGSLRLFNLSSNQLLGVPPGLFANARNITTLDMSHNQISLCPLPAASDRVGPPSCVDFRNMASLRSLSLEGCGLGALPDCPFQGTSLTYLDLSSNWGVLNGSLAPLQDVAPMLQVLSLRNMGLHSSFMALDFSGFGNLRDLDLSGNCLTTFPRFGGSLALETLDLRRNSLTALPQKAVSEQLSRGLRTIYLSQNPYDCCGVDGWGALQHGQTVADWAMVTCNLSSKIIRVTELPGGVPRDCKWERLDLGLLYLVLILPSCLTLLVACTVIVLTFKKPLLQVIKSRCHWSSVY
Kind of assay: staining of PMA-stimulated THP1 cells with 10 ug/mL antibody, detected with fluorophore conjugated secondary antibody (internalization assay). Here is the method:
FIG. 15 provides results from an internalization study. THP1 cells were stimulated overnight with PMA to induce LRRC33 surface expression and adherence to tissue culture plastic. The next day, cells were stained with antibodies at 10 ug/mL for 1 hour. A subset of cells were washed and moved to cell culture media and to 37° C. for 1 hour or two hours, while another subset (time 0) were immediately fixed. Another subset of cells were washed and kept at 4° C. Internalization was detected by using fluorophore conjugated secondary antibodies against the primary antibody isotypes. Gemtuzumab and SRL1, a human specific mouse antibody against LRRC33, internalize similarly.

B1: SRL1 (antibody, V domains shown)
VH: EVQLQQSGTVLARPGASVKMSCKASGYTFTYYWMQWVKQRPGQGLEWIGAIYPGNSDTTYNQKFKGKAKLTAVTSTSTAYMELSSLTNEDSAVYYCTNTNWEAMDYWGQGTSVTVSS
VL: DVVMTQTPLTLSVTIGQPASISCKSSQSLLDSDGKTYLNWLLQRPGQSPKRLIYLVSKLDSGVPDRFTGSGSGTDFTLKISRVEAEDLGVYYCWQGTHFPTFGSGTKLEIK
notes: also called LRRC33 antibody SRL1
Regarding B1, the binding result is “binds”.
